7 molecules from patent US20260250371A1 (ULTRAGENYX PHARMACEUTICAL, published 2026) can be followed below.

Positions count from the first letter of the chain named. Names and notes keep the numbering of the source. Values joined by “and” are separate entries in the source; they are usually repeats but may differ in a detail not shown here. Identical values can stand only once.

The chains are these.
T1: recombinant human FGF23 (R179Q) (human, UniProt Q9GZV9 25-251)
T1 construct: also called rhFGF23(R179Q); hFGF23(R179Q)
T1 sequence (looked up): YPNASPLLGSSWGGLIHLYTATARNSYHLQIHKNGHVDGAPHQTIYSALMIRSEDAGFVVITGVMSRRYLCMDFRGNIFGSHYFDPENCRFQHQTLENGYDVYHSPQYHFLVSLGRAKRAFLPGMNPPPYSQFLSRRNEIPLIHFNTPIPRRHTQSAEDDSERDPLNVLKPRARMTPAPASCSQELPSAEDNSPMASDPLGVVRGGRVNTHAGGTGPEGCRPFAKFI

B1: UGX178 (antibody, human IgG1, kappa, V domains shown)
VH: QVQLVQSGAEVKKPGASVKVSCKASGYTFTFHYMHWVRQAPGQGLEWMGIINPISGSTFNAQKFQGRVTMTRDTSTSTVYMELSSLRSEDTAVYYCARDIVDAFDFWGQGTMVTVSS
VL: AIQLTQSPSSLSASVGDRVTITCRASQGISSALVWYQQKPGKAPKLLIYDASSLESGVPSRFSGSGSGTDFTLTISSLQPEDFATYYCQQFNDYFTFGPGTKVDIKR
notes: also called HC:N31F, HC:S59F
B2: UGX188 (antibody, human IgG1, kappa, V domains shown)
VH: B1 VH with F31N, S57E, F59D
VL: B1 VL
notes: also called HC:S57E, HC:S59D
B3: UGX165 (antibody, human IgG1, kappa, V domains shown)
VH: B1 VH with F31N, F59V
VL: B1 VL
notes: also called HC:S59V
B4: UGX192 (antibody, human IgG1, kappa, V domains shown)
VH: B1 VH with F31N, N52F, F59S, V101I
VL: B1 VL
notes: also called HC:N52F, HC:V101I
B5: UGX190 (antibody, human IgG1, kappa, V domains shown)
VH: B1 VH with F31N, F59T, V101L
VL: B1 VL
notes: also called HC:S59T, HC:V101L
B6: UGX166 (antibody, human IgG1, kappa, V domains shown)
VH: B1 VH with F31N, F59Y
VL: B1 VL
notes: also called UGX068; HC:S59Y
B7: Burosumab (antibody, human IgG1, kappa, V domains shown)
VH: B1 VH with F31N, F59S
VL: B1 VL
notes: Recombinant human IgG1 kappa; also called burosumab-twza; parental burosumab

One assay deals with T1, recombinant human FGF23 (R179Q). The experiment in a line: SPR, antibody captured on hIgG chip, rhFGF23(R179Q) analyte. On the technique in general: In SPR one partner is held on a chip, and binding of the other changes the refractive index at the surface.
For B1, the Kd amounted to 21.2 pM, the “Ratio (variant antibody KD/burosumab KD)” value is 1, the “SA (surface activity)” value worked out at 85.6% and the koff was 0.000134 s⁻¹. For the same molecule, the kon turned out to be 6.33e+06 M⁻¹ s⁻¹.
For B2 the same measures were 18.3 pM, 1, 95.8%, 0.000253 s⁻¹ and 1.39e+07 M⁻¹ s⁻¹.
B3: the Kd is 36.3 pM and 44.8 pM; the off-rate (koff) is 0.000175 s⁻¹ and 0.00022 s⁻¹; the kon was 4.82e+06 M⁻¹ s⁻¹ and 4.92e+06 M⁻¹ s⁻¹.
Turning to B4, the Kd came out at 20600 pM, the “Ratio (variant antibody KD/burosumab KD)” value was 0, the “SA (surface activity)” value is 82.3% and the koff turned out to be 0.0236 s⁻¹. The kon was 1.15e+06 M⁻¹ s⁻¹.
Turning to B5, the Kd worked out at 3080 pM, the “Ratio (variant antibody KD/burosumab KD)” value was found to be 0, the “SA (surface activity)” value was 92.7% and the koff was 0.0103 s⁻¹. Besides, the kon is 3.35e+06 M⁻¹ s⁻¹.
For B6, the Kd is 22.4 pM, the “Ratio (variant antibody KD/burosumab KD)” value stood at 1, the “SA (surface activity)” value stood at 93.1% and the koff is 0.000196 s⁻¹. Further, the kon is 8.77e+06 M⁻¹ s⁻¹.

Another assay has the same target. The description is as above. This is another data set of the same source.
Regarding B7, the Kd was found to be 20.8 pM, the “Ratio (variant antibody KD/burosumab KD)” value came out at 1, the “SA (surface activity)” value was 88.8% and the koff stood at 0.000157 s⁻¹. Besides, the kon was found to be 7.22e+06 M⁻¹ s⁻¹.

A word on the Kd: it is a measure of binding affinity in units of concentration. One may read the koff as the rate constant with which the complex falls apart. In general, kon refers to the second-order rate constant of association.
